The results in this text go back to patent publication US20190100563A1 (UNIVERSITY COURT OF THE UNIVERSITY OF EDINBURGH, published 2019).

Several values for one entry are separate records, joined by “and”; a condition that tells them apart may be missing. Identical values can stand only once.

T1: CFH 8-15 (recombinant fragment, CCPs 8-15 of human CFH) (human, UniProt P08603 446-928)
T1 construct: also called CF8-15
T1 sequence: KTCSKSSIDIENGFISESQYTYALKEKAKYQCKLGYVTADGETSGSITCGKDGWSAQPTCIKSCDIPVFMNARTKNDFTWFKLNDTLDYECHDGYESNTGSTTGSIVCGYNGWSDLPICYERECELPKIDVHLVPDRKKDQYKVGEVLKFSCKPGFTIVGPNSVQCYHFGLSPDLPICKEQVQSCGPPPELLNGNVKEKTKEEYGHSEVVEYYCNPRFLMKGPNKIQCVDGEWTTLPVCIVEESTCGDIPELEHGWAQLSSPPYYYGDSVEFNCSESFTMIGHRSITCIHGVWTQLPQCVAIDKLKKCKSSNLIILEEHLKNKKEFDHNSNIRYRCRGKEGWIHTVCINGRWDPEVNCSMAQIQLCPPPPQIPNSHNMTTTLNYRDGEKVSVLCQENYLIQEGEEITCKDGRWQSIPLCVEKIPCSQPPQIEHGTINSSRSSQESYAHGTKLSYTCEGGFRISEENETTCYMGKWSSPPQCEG

T2: CFH 10-11 (recombinant fragment, CCPs 10-11 of human CFH) (human, UniProt P08603 567-686)
T2 sequence: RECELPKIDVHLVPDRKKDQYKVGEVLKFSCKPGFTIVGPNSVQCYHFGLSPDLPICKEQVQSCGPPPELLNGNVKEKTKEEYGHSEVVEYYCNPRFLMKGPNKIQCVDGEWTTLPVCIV

T3: CFH 6-8 (recombinant construct corresponding to CFH CCPs 6-8) (human, UniProt P08603 321-509)
T3 sequence: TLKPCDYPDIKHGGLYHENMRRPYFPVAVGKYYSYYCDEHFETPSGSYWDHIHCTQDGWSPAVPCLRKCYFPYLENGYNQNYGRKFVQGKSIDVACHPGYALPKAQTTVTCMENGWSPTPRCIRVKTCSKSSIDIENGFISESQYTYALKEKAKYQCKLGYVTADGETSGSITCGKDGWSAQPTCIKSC

T4: CFH 10-15 (recombinant fragment, CCPs 10-15 of human CFH) (human, UniProt P08603 567-928)
T4 sequence: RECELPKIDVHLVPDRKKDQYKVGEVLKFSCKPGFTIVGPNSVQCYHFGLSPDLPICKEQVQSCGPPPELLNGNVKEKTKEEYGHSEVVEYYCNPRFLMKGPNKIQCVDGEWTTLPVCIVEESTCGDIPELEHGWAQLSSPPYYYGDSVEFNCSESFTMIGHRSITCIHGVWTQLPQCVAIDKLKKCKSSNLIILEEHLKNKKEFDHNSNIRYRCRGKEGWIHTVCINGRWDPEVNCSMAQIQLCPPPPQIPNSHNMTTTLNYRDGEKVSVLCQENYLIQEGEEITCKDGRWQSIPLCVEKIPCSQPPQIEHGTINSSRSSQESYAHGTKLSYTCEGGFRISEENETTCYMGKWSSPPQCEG

T5: CFH 8-9 (recombinant fragment, CCPs 8-9 of human CFH) (human, UniProt P08603 446-566)
T5 sequence: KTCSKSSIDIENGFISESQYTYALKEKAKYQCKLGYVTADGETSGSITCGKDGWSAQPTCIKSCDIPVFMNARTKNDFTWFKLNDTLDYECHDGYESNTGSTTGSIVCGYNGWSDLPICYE

B1: His-SUMO-Cys-PspCN (other)
chain: CGSGSGSGSGGATENEGSTQAATSSNMAKTEHRKAAKQVVDEYIEKMLREIQLDRRKHTQNVALNIKLSAIKTKYLRELNVLEEKSKDELPSEIKAKLDAAFEKFKKDTLKPGEK
notes: also called Cys-PspCN (as SPR ligand); not shown: N-terminal His-SUMO tag
B2: Human complement factor H purified from plasma (other)
chain: EDCNELPPRRNTEILTGSWSDQTYPEGTQAIYKCRPGYRSLGNVIMVCRKGEWVALNPLRKCQKRPCGHPGDTPFGTFTLTGGNVFEYGVKAVYTCNEGYQLLGEINYRECDTDGWTNDIPICEVVKCLPVTAPENGKIVSSAMEPDREYHFGQAVRFVCNSGYKIEGDEEMHCSDDGFWSKEKPKCVEISCKSPDVINGSPISQKIIYKENERFQYKCNMGYEYSERGDAVCTESGWRPLPSCEEKSCDNPYIPNGDYSPLRIKHRTGDEITYQCRNGFYPATRGNTAKCTSTGWIPAPRCTLKPCDYPDIKHGGLYHENMRRPYFPVAVGKYYSYYCDEHFETPSGSYWDHIHCTQDGWSPAVPCLRKCYFPYLENGYNQNYGRKFVQGKSIDVACHPGYALPKAQTTVTCMENGWSPTPRCIRVKTCSKSSIDIENGFISESQYTYALKEKAKYQCKLGYVTADGETSGSITCGKDGWSAQPTCIKSCDIPVFMNARTKNDFTWFKLNDTLDYECHDGYESNTGSTTGSIVCGYNGWSDLPICYERECELPKIDVHLVPDRKKDQYKVGEVLKFSCKPGFTIVGPNSVQCYHFGLSPDLPICKEQVQSCGPPPELLNGNVKEKTKEEYGHSEVVEYYCNPRFLMKGPNKIQCVDGEWTTLPVCIVEESTCGDIPELEHGWAQLSSPPYYYGDSVEFNCSESFTMIGHRSITCIHGVWTQLPQCVAIDKLKKCKSSNLIILEEHLKNKKEFDHNSNIRYRCRGKEGWIHTVCINGRWDPEVNCSMAQIQLCPPPPQIPNSHNMTTTLNYRDGEKVSVLCQENYLIQEGEEITCKDGRWQSIPLCVEKIPCSQPPQIEHGTINSSRSSQESYAHGTKLSYTCEGGFRISEENETTCYMGKWSSPPQCEGLPCKSPPEISHGVVAHMSDSYQYGEEVTYKCFEGFGIDGPAIAKCLGEKWSHPPSCIKTDCLSLPSFENAIPMGEKKDVYKAGEQVTYTCATYYKMDGASNVTCINSRWTGRPTCRDTSCVNPPTVQNAYIVSRQMSKYPSGERVRYQCRSPYEMFGDEEVMCLNGNWTEPPQCKDSTGKCGPPPPIDNGDITSFPLSVYAPASSVEYQCQNLYQLEGNKRITCRNGQWSEPPKCLHPCVISREIMENYNIALRWTAKQKLYSRTGESVEFVCKRGYRLSSRSHTLRTTCWDGKLEYPTCAKR
notes: also called Plasma CFH; plasma-purified CFH
B3: PspCN (cleaved, PspC residues 37-140, S. pneumoniae strain D39) (other)
chain: ATENEGSTQAATSSNMAKTEHRKAAKQVVDEYIEKMLREIQLDRRKHTQNVALNIKLSAIKTKYLRELNVLEEKSKDELPSEIKAKLDAAFEKFKKDTLKPGEK
B4: Plasma CFH:PspCN complex (other)
chain 1: B2 chain
chain 2: B3 chain
notes: also called PspCN:CFH
B5: sPspCN (N-terminally hexaHis-SUMO-tagged PspC residues 37-140, S. pneumoniae strain D39) (other)
chain: B3 chain
notes: not shown: N-terminal hexaHis-SUMO tag from the pE-SUMOpro Kan vector
B6: His-SUMO-PspCN-Cys (other)
chain: ATENEGSTQAATSSNMAKTEHRKAAKQVVDEYIEKMLREIQLDRRKHTQNVALNIKLSAIKTKYLRELNVLEEKSKDELPSEIKAKLDAAFEKFKKDTLKPGEKGSGSGSGSGGC
notes: also called PspCN-Cys (as SPR ligand); not shown: N-terminal His-SUMO tag
B7: PspCN (TIGR4 37-179), fragment of PspC (CbpA) of S. pneumoniae strain TIGR4 (other)
chain: ATENEGATQVPTSSNRANESQAEQGEQPKKLDSERDKARKEVEEYVKKIVGESYAKSTKKRHTITVALVNELNNIKNEYLNKIVESTSESQLQILMMESRSKVDEAVSKFEKDSSSSSSSDSSTKPEASDTAKPNKPTEPGEK
notes: not shown: N-terminal hexaHis-SUMO tag used for capture on the NTA chip

Assay [1] deals with B2. Nature of the assay: SPR, His-SUMO-Cys-PspCN as ligand, plasma-purified CFH as analyte, kinetic analysis.
Assay [2] has as its target T6, Human C3b (plasma-purified) (human, UniProt P01024 23-667; P01024 749-1663). Nature of the assay: SPR (Biacore), coupled C3b, TIGR4 experiment.
Assay [3] has as its target T6, Human C3b (plasma-purified). As to the kind of experiment: SPR, amine-coupled C3b on C1 chip, equilibrium 1:1 fit.
Procedure: The sensor chip was regenerated by 2×30 s injections of 1 M NaCl. Data were analysed using the Biacore evaluation software and equilibrium affinity parameters were calculated using a 1:1 binding affinity model.
Commercially sources plasma-purified human C3b, C3c and C3d were immobilized using standard amine coupling to different channels of the same C1 SPR chip (Biacore).
Assay [4] has the same target. Nature of the assay: SPR, amine-coupled C3 fragments on C1 chip.
In assay [5] the target is T7, Human C3d (plasma-purified) (human, UniProt P01024 1002-1303).
T7 construct: domain: TED; also called TED of C3b
T7 sequence (P01024 1002-1303 limits assumed): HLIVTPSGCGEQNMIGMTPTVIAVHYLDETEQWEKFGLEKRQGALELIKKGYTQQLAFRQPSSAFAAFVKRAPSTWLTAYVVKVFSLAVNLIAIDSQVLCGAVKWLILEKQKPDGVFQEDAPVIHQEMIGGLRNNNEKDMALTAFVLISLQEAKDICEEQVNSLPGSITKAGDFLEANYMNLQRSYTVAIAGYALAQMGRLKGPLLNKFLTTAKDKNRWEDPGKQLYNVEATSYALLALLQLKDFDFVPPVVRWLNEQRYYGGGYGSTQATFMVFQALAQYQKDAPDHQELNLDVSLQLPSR
Nature of the assay: SPR, amine-coupled C3 fragments on C1 chip.

Assay [6] deals with Human C3c (plasma-purified) (human, UniProt P01024 23-667; P01024 749-954; P01024 1321-1663). As to the kind of experiment: SPR, amine-coupled C3 fragments on C1 chip.
Sequence of Human C3c (plasma-purified) (P01024 23-667, chain 1 of 3): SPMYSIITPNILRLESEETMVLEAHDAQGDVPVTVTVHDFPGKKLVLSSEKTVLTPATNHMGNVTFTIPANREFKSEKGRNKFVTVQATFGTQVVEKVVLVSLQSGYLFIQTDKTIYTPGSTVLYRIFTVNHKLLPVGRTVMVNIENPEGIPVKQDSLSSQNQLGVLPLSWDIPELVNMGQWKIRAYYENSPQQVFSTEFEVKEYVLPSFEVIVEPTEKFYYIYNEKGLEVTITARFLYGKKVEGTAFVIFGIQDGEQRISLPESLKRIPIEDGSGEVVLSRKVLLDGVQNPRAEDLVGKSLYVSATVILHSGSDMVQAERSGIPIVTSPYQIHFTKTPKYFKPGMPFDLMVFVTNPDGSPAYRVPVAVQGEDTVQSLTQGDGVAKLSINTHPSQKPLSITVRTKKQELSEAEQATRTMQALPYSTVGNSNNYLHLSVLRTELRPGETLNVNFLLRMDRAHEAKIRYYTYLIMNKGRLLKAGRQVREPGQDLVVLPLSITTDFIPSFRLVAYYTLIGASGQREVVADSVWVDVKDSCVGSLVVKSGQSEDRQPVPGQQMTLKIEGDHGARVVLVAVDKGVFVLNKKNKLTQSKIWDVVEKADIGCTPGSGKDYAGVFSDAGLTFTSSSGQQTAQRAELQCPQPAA
Sequence of Human C3c (plasma-purified) (P01024 749-954, chain 2 of 3): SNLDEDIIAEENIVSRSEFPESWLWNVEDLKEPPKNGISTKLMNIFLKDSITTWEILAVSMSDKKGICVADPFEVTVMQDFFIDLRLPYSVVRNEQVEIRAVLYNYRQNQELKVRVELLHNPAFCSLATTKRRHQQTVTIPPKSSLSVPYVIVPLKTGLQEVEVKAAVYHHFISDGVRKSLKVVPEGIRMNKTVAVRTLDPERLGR
Sequence of Human C3c (plasma-purified) (P01024 1321-1663, chain 3 of 3): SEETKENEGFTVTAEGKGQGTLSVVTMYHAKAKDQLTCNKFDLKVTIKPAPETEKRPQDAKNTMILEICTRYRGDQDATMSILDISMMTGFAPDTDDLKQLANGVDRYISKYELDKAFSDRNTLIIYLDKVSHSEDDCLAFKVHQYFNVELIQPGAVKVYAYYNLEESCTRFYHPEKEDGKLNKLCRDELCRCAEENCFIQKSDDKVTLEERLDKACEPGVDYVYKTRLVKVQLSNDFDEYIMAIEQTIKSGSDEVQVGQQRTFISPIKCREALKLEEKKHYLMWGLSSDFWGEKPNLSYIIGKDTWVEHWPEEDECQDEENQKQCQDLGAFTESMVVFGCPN
In assay [7] the target is B2. Nature of the assay: cell-based or functional assay.
The target of assay [8] is T8, Recombinant human CFH, wild-type sequence, from Pichia pastoris (human, UniProt P08603 19-1231). Nature of the assay: cell-based or functional assay.
Assay [9] has as its target T7, Human C3d (plasma-purified). As to the kind of experiment: SPR, immobilised C3d.
In assay [10] the target is T6, Human C3b (plasma-purified). As to the kind of experiment: SPR, immobilised C3b.
The target is the same in assay [11]. Nature of the assay: SPR, amine-coupled C3b on C1 chip.
For assay [12], the target named is T1, CFH 8-15 (recombinant fragment, CCPs …). As to the kind of experiment: SPR, sPspCN on NTA/Ni2+ chip.
Assay [13] deals with T2, CFH 10-11 (recombinant fragment, CCPs …). Nature of the assay: SPR, sPspCN on NTA/Ni2+ chip.
For assay [14], the target named is T3, CFH 6-8 (recombinant construct …). As to the kind of experiment: SPR, sPspCN on NTA/Ni2+ chip.
Assay [15] deals with T9, Recombinant human CFH (D1119G) from Pichia pastoris (human, UniProt P08603 19-1231).
T9 construct: also called rCFH-D1119G; rCFH (D1119G)
T9 sequence (P08603 19-1231 D1119G limits assumed): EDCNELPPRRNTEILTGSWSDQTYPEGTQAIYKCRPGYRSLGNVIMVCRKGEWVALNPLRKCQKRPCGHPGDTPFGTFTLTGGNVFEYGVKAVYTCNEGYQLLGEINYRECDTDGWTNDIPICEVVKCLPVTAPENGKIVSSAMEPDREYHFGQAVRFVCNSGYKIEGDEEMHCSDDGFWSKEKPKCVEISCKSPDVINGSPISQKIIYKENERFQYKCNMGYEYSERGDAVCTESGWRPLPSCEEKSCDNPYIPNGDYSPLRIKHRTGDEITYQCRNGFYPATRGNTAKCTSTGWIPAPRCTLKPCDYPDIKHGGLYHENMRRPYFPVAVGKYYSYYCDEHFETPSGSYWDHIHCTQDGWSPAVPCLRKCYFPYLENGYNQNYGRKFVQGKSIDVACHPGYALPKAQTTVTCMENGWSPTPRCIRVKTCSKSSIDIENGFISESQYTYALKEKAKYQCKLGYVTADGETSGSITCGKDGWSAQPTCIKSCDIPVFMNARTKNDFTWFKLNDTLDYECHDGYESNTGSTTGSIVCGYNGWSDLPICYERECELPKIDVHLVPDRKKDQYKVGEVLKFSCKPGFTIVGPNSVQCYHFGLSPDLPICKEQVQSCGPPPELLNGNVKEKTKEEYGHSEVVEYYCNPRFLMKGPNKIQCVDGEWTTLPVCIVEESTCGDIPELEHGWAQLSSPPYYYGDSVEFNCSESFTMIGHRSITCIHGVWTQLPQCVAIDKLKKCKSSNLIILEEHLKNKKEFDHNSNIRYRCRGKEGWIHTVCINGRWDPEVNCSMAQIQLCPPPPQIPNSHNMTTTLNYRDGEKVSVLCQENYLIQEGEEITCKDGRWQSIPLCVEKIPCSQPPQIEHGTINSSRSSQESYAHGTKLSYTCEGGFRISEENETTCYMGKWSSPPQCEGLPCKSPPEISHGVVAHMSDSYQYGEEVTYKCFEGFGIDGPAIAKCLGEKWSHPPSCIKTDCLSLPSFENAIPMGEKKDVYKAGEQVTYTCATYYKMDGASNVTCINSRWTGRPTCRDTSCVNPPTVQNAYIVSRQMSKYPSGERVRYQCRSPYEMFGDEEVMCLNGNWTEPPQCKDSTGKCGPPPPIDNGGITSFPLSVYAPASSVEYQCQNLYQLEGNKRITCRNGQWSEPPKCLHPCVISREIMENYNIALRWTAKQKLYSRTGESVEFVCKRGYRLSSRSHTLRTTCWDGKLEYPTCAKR
As to the kind of experiment: SPR, sPspCN on NTA/Ni2+ chip, rCFH-D1119G as analyte, 1:1 kinetic fit.

Assay [16] addresses B2. Nature of the assay: SPR, sPspCN on NTA/Ni2+ chip, CFH as analyte, 1:1 kinetic fit.
For assay [17], the target named is T4, CFH 10-15 (recombinant fragment, CCPs …). Nature of the assay: SPR, immobilised sPspCN.
The target in assay [18] is T1, CFH 8-15 (recombinant fragment, CCPs …). Nature of the assay: SPR, sPspCN on NTA/Ni2+ chip, CFH 8-15 as analyte, 1:1 kinetic fit.
The target of assay [19] is B2. As to the kind of experiment: not stated there (SPR in the examples).
In assay [20] the target is T8, Recombinant human CFH, wild-type …. Nature of the assay: SPR, sPspCN on NTA/Ni2+ chip, rCFH as analyte, 1:1 kinetic fit.
Assay [21] concerns the target T5, CFH 8-9 (recombinant fragment, CCPs 8-9 …). As to the kind of experiment: SPR, sPspCN on NTA/Ni2+ chip, CFH 8-9 concentration series, equilibrium method.
For assay [22], the target named is B2. Nature of the assay: SPR, His-SUMO-PspCN-Cys as ligand, plasma-purified CFH as analyte, kinetic analysis.
In assay [23] the target is B2. Nature of the assay: SPR, TIGR4 fragment on NTA chip, CFH as analyte.

T6 sequence (P01024 23-667 limits assumed, chain 1 of 2): as the sequence (P01024 23-667, chain 1 of 3) above
T6 sequence (P01024 749-1663 limits assumed, chain 2 of 2): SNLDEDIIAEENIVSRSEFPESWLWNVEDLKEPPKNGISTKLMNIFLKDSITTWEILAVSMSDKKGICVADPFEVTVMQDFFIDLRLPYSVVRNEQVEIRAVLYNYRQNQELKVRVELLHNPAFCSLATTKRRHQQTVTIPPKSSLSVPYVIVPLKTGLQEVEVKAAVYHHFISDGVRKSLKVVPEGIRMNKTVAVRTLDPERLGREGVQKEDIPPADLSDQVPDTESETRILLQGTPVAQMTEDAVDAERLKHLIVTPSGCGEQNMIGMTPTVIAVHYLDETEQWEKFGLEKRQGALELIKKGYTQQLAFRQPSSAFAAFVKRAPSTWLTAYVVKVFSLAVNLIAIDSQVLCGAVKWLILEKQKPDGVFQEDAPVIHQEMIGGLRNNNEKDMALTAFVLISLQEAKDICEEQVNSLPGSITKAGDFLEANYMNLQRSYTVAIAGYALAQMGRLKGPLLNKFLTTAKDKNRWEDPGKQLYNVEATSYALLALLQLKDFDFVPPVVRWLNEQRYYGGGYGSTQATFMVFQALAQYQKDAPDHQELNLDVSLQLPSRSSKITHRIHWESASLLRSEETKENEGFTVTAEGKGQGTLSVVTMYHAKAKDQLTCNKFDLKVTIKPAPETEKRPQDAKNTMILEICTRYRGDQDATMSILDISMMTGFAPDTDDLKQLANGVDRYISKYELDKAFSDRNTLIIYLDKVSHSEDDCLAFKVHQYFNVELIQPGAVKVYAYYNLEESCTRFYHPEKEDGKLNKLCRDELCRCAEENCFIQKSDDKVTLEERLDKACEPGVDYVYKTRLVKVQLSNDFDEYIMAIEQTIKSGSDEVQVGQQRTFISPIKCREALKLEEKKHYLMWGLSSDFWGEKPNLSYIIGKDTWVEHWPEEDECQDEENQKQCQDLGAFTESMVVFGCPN

In turn, B1 showed a Kd in assay [1] of around 0.0001 nM.

On to B2, for which the Kd in assay [2] came out at 550 nM; in assay [3], 490 nM.

For the molecule B3, the binding result in assay [4], in [5] and in assay [6] was “no binding” each time. The “inhibition of haemolysis of PNH-like erythrocytes by acidified normal human serum, IC50” value in assay [7] worked out at 28 nM. Also, the “rate of decay acceleration of C3b.Bb (SPR-based assay)” value in assay [8] was around 10 fold.

B4: in assay [9], the “fold better binding than intact CFH” value was above 50 fold. Also, the “fold difference in affinity against CFH” value in assay [10] was determined as 4 fold. The molecule also yielded a Kd in assay [3] of 160 nM. Further, in assay [11], the “fold better binding than CFH alone” value was determined as 3 fold.

For B5, the Kd in [12] was 1 nM and 2 nM; in assay [15] it was 0.012 nM; in assay [16], 0.045 pM; in [18], 1.3 nM; in [19], around 0.05 pM; in assay [20], 0.053 pM. For the same molecule, in [21], the Kd amounted to 26 nM. The binding result in [13] was “no binding”; in [14], “no binding”; in assay [17] it was “no binding (tested: 50 nM (from the legend))”.

B6 came in with a Kd in [22] of around 0.0001 nM.

For B7, the Kd in assay [23] is below 0.01 nM.
